# Source: US20040096935A1
# “And” between values parts separate entries of the source, which are not always exact repeats. Equal values may be shown once.
# B1: recombinant human IL-20 expressed in CHO cells (ligand)
# chain: RSPKSKRKGQGRPGPLAPGPHQVPLDLVSRMKPYARMEEYERNIEEMVAQLRNSSELAQRKCEVNLQLWMSNKRSLSPWGYSINHDPSRIPVDLPEARCLCLGCVNPFTMQEDRSMVSVPVFSQVPVRRRLCPPPPRTGPCRQRAVMETIAVGCTCIF
# Experiments:
# [1] = target: IL-17 receptor (immobilised receptor of the first BIAcore experiment of Example 8) (UniProt Q96F46); assay: BIAcore SPR; IL-17 (R&D) at 25 ug/mL over immobilised receptor
# [2] = target: IL-17 receptor (immobilised receptor of the first BIAcore experiment of Example 8) (UniProt Q96F46); assay: BIAcore SPR; conditioned CHO supernatant over immobilised receptor; IL-20 concentration estimated ~25 ug/mL; pC4 vector control medium ~20 RU
Molecule,binding response (RU) [1] [RU],binding response (RU) [2]
recombinant human IL-17 (R&D Systems) (from UniProt Q16552 20-155) (ligand),60,
B1,,115 RU and 65 RU
